Measurements as given in patent US6645738B1, “DNA molecules encoding the melanocortin 5 receptor protein from rhesus monkey” (Merck & Co., Inc., priority 1998, dated 2003).
Read-outs that look alike come from different tables or passages of the source.

T1: rhesus monkey (Macaca mulatta) melanocortin-5 receptor (rhesus monkey (Macaca mulatta), UniProt P33032 1-325 (human entry))
T1 construct: Full-length open reading frame (325 amino acids) in pcDNA3.neo, stably expressed in CHO dhfr- cells; assays on whole cells; also called rhMC-5R; rhesus MC-5R
T1 chain: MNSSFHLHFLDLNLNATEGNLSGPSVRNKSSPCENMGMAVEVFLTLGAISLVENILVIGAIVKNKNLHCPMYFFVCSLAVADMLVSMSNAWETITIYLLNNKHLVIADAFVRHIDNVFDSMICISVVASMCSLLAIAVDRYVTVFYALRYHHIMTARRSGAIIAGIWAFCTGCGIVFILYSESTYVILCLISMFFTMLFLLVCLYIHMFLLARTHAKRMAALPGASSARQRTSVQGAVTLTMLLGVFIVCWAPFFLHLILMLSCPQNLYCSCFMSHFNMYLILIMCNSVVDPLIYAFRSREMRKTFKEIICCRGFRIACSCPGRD


Experiments:
rhesus MC-5R [1] = format: cell-based, rhesus monkey (Macaca mulatta); conditions: for EC50: read-out: EC50, nM rhMC-5R
Protocol: (§1) To determine the functional activation of receptors, stably transfected CHO cells were washed once with PBS without Ca^++/Mg^++, dissociated by non-enzymatic dissociation medium (Specialty Media, Inc.) at 37° C. for 10 min. Dissociated cells were resuspended in EBSS buffer containing 25 mM Hepes, 5 mM MgCl2, 0.1% BSA and 50 mM IBMX and incubated with agonist at room temperature for 45 min. The agonist activation was terminated by boiling for 4 min.
(§2) A cDNA encoding human MC-5R subcloned into the pIRES1neo expression vector (Clontech) and stably transfected into CHO cells was used as a reference for the pharmacological properties of the rhesus MC-5R. Single clones were used in all pharmacological studies as described above. The functional properties of rhMC-5R were determined by heterologous expression in CHO cells.

human MC-5R [2] = target: T2, human MC-5R (Homo sapiens, UniProt P33032); format: cell-based
T2 construct: expressed in transfected cells
T2 sequence (P33032 whole entry): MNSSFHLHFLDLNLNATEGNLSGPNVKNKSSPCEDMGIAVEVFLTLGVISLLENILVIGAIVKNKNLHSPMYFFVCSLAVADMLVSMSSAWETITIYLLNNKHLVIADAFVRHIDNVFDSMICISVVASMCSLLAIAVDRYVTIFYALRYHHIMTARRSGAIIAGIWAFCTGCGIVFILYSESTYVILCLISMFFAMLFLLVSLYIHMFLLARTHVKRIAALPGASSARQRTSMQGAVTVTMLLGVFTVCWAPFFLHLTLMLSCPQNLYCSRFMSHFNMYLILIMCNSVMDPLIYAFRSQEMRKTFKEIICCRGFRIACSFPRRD
Protocol: as §1
(§3) Single clones were used in all pharmacological studies as described above.
as §2

[3] = target: rhesus monkey (Macaca mulatta) melanocortin-5 receptor (rhesus monkey (Macaca mulatta)); assay: cell-based or functional assay
[4] = target: rhesus monkey (Macaca mulatta) melanocortin-5 receptor (rhesus monkey (Macaca mulatta)); assay: displacement of 0.1 nM 125I-NDP-α-MSH from CHO cells stably expressing rhMC-5R
[5] = target: T3, human melanocortin 5 receptor (human, UniProt P33032 1-325); assay: cell-based or functional assay
rhesus MC-5R [6] = format: binding, rhesus monkey (Macaca mulatta); conditions: read-out: IC50, nM rhMC-5R
Protocol: (§4) The receptor plasmid was transfected into CHO dhfr- cells using lipofectamin (GIBCO). Transfected cells were selected by G418 for at least 2-3 weeks before binding and functional assays were performed. […] After incubation at room temperature for 3 hours, wells were washed 3 times by PBS, lysed in 0.5 ml of 0.05% SDS and counted by a gamma counter.
as §2

[7] = target: T3, human melanocortin 5 receptor; assay: displacement of 0.1 nM 125I-NDP-α-MSH from CHO cells stably expressing hMC-5R
human MC-5R [8] = target: T2, human MC-5R; format: binding
Protocol: as §4, §3, §2

[9] = target: T1, rhesus monkey (Macaca mulatta) …; assay: displacement of 0.1 nM 125I-NDP-α-MSH from CHO cells stably expressing rhMC-5R
Protocol: as §4, with “dhfr-cells” for “dhfr- cells”, “2–3” for “2-3”

[10] = target: T1, rhesus monkey (Macaca mulatta) …; assay: cell-based or functional assay

Row | EC50, nM (cAMP synthesis in CHO cells) [3] [nM] | Maximal response (%) [3] [%] | IC50 [4] [nM] | EC50, nM (cAMP synthesis in CHO cells) [5] [nM] | Maximal response (%) [5] [%] | Molecule | Maximal response (%) rhMC-5R (rhesus MC-5R [1]) [%] | EC50 (rhesus MC-5R [1]) [nM] | IC50 (rhesus MC-5R [6]) [nM] | further results
1 | – | – | – | – | – | γ2-MSH | 100 | – | – | Agonist character at human MC-5R (in words) (human MC-5R [2]): partial agonists; Maximal response (%) hMC-5R (human MC-5R [2]): 80%
2 | 0.02 | 100 | 5 | 0.8 | 85 | MT-II (peptide) | – | – | – | –
3 | – | – | – | – | – | MT-II [MTII] | 100 | 0.02 ± 0.01 | 5 ± 0.2 | Agonist character at human MC-5R (in words) (human MC-5R [2]): partial agonists; Maximal response (%) hMC-5R (human MC-5R [2]): 85%
4 | 0.02 | 100 | 0.2 | 0.3 | 100 | NDP-α-MSH (peptide) | – | – | – | IC50 [7]: 0.5 nM
5 | – | – | – | – | – | human ACTH(1-24) [ACTH1-24] | – | – | 15 ± 1 | Maximal response (%) rhMC-5R (rhesus MC-5R [1]; cAMP response, CHO cells): 100%; EC50 (rhesus MC-5R [1]; intracellular cAMP, CHO cells, agonist 45 min at room temperature): 0.2 ± 0.1 nM; Maximal response (%) hMC-5R (human MC-5R [2]; cAMP response, CHO cells): 100%
6 | – | – | – | – | – | NDP-α-MSH | 100 | 0.02 ± 0.01 | 0.2 ± 0.1 | –
7 | – | – | – | – | – | α-MSH | 100 | 0.2 ± 0.1 | – | Apparent binding affinity for the human MC-5R (in words) (human MC-5R [8]): very low apparent binding affinity
8 | 0.007 | 100 | 0.02 | 0.03 | 100 | Shu-9119 (peptide) | – | – | – | IC50 [7]: 0.4 nM
9 | – | – | – | 5 | 100 | SYSMEHFRWGKPVGKKRRPVKVYP (peptide, UniProt P01189 138-161, looked up, range 138-161) [human ACTH(1-24)] | – | – | – | IC50 [9]: 15 nM; EC50, nM (cAMP synthesis in CHO cells) [10]: 0.2 nM; Maximal response (%) [10]: 100%
